We go through one molecule from patent US20090004190A1, “Rage Fusion Proteins And Methods Of Use” (priority 2006, published 2009).

The subject of one experiment is Fc receptor. Kind of experiment: Fc receptor activation: TNF-α secretion from THP-1 cells. Particulars: well precoated with 10 ug/well heat aggregated protein, 24 hours, FIG. 12. The format is cell-based. From the text:
Fc stimulation results in TNF-α secretion.

Experiment [1] relates to transgenic mice expressing human Swedish mutant APP. Nature of the experiment: Mouse model of AD (APP transgenic mice): amyloid deposition and Morris water maze. In kind it is in vivo. As for the experimental part:
Experiments were performed to evaluate whether TTP-4000 could affect amyloid formation and cognitive dysfunction in a mouse model of AD. The experiments utilized transgenic mice expressing the human Swedish mutant amyloid precursor protein (APP) under the control of the PDGF-B chain promoter. Over time, these mice generate high levels of the RAGE ligand, amyloid beta (Aβ).
The APP mice (male) used in this experiment were designed by microinjection of the human APP gene (with the Swedish and London mutations) into mouse eggs under the control of the platelet-derived growth factor B (PDGF-B) chain gene promoter. The mice were generated on a C57BL/6 background and were developed by Molecular Therapeutics Inc. Animals were fed ad libitum and maintained by brother sister mating. The mice generated from this construct develop amyloid deposits starting at 6 months of age. Animals were aged for 6 months and then maintained for 90 days and sacrificed for amyloid quantification.
APP transgenic mice were administered vehicle or TTP4000 every other day [qod (i.p.)] for 90 days starting at 6 months of age. At the end of the experiment, animals were sacrificed and examined for Aβ plaque burden in the brain (i.e., plaque number). A 6-month control APP group was used to determine the baseline of amyloid deposits. In addition, at the end of the study, the animals were subjected to behavioral (Morris water maze) analysis. The investigators were blinded to the study compounds. Samples were given to the mice at 0.25 ml/mouse/every other day.
For histological examination, the animals were anesthetized with an intraperitoneal injection (IP) of sodium pentobarbital (50 mg/kg). The animals were transcardially perfused with 4° C., phosphate-buffered saline (PBS) followed by 4% paraformaldehyde. The brains were removed and placed in 4% paraformaldehyde over night. The brains were processed to paraffin and embedded. Ten serial 30-μm thick sections through the brain were obtained. Sections were subjected to primary antibody overnight at 4° C. (Aβ peptide antibody) in order to detect the amyloid deposits in the brain of the transgenic animals (Guo et al., J. Neurosci., 22:5900-5909 (2002)). Sections were washed in Tris-buffered saline (TBS) and secondary antibody was added and incubated for 1 hour at room temperature. After washing, the sections were incubated as instructed in the Vector ABC Elite kit (Vector Laboratories) and stained with […] (DAB). The reactions were stopped in water and cover-slipped after treatment with xylene. The amyloid area in each section was determined with a computer-assisted image analysis system, consisting of a Power Macintosh computer equipped with a Quick Capture frame grabber card, Hitachi CCD camera mounted on an Olympus microscope and camera stand. NIH Image Analysis Software, v. 1.55 was used. The images were captured and the total area of amyloid was determined over the ten sections. A single operator blinded to treatment status performed all measurements. Summing the amyloid volumes of the sections and dividing by the total number of sections was done to calculate the amyloid volume.
For quantitative analysis, an enzyme-linked immunosorbent assay (ELISA) was used to measure the levels of human total Aβ, Aβtotal and Aβ1-42 in the brains of APP transgenic mice (Biosource International, Camarillo, Calif.). Aβtotal and Aβ1-42 were extracted from mouse brains by guanidine hydrochloride and quantified as described by the manufacturer. […]

The subject of experiment [2] is S100b/RAGE-induced production of TNF-α in THP-1 cells. Nature of the experiment: Inhibition of S100b/RAGE-induced production of TNF-α in THP-1 cells. In kind it is cell-based. Particulars: 10 μg protein, FIG. 10. From the text: Use of the RAGE fusion proteins of the present invention to modulate expression of the cellular effector TNF-α is shown in FIG. 10. THP-1 myeloid cells may be cultured in RPMI-1640 media supplemented with 10% FBS and induced to secrete TNF-α via stimulation of RAGE with S100b. When such stimulation occurs in the presence of a RAGE fusion protein, induction of TNF-α by S100b binding to RAGE may be inhibited.
Previous work has shown that the myeloid THP-1 cells may secrete TNF-α in response to RAGE ligands. In this assay, THP-1 cells were cultured in RPMI-1640 media supplemented with 10% FBS using a protocol provided by ATCC. […] The amount of TNF-α secreted by the THP-1 cells was measured 24 hours after the addition of the proteins to the cell culture using a commercially available ELISA kit for TNF-α (R&D Systems, Minneapolis, Minn.).

The test system of experiment [3] is Zucker diabetic rats, restenosis following vascular injury. Kind of experiment: Diabetic rat model of restenosis (balloon injury of left common carotid artery). Particulars: for Luminal area / Medial area: IP, 21 days. In kind it is in vivo. As for the experimental part: In these experiments, balloon injury of left common carotid artery was performed in Zucker diabetic and nondiabetic rats using standard procedure. […] A maintenance dose was delivered every other day until day 7 after injury (i.e., at day 1, 3, 5 and 7 after injury). The maintenance dose was high=1 mg/animal for one group, or low=0.3 mg/animal for the second group. To measure vascular smooth muscle cell (VSMC) proliferation, animals were sacrificed at 4 days and 21 days after injury.
For the measurement of cell proliferation, 4 day animals received intraperitoneal injection of bromodeoxyuridine (BrDdU) 50 mg/kg at 18, 12, and 2 hours before euthanasia. After sacrifice, the entire left and right carotid arteries were harvested. Specimens were stored in Histochoice for at least 24 hours before embedding. Assessment of VSMC proliferation was performed using mouse anti-BrdU monoclonal antibody. A fluorescence labeled goat anti-mouse secondary antibody was applied. The number of BrdU-positive nuclei per section were counted by two observers blinded to the treatment regimens.
The remaining rats were sacrificed at 21 days for morphometric analysis. Morphometric analyses were performed by an observer blinded to the study groups, using computerized digital microscopic planimetry software Image-Pro Plus on serial sections, ([…]) carotid arteries stained by Van Gieson staining. All data were expressed as mean±SD. Statistical analysis was performed with use of SPSS software. Continuous variables were compared using unpaired t tests. A values of P≦0.05 was considered to be statistically significant.

Setting [4] is: High dose 1.0 mg/animal qod × 4, loading dose 3 mg/animal.
The mark [5] stands for this setting: Low dose 0.3 mg/animal qod × 4, loading dose 3 mg/animal.

B1: TTP-4000: four domain RAGE fusion protein: human RAGE V and C1 domains with interdomain linkers (to residue 251) fused to human IgG1 CH2 and CH3; SEQ ID NO: 34/56 (protein, listed as Homo sapiens)
chain: QNITARIGEPLVLKCKGAPKKPPQRLEWKLNTGRTEAWKVLSPQGGGPWDSVARVLPNGSLFLPAVGIQDEGIFRCQAMNRNGKETKSNYRVRVYQIPGKPEIVDSASELTAGVPNKVGTCVSEGSYPAGTLSWHLDGKPLVPNEKGVSVKEQTRRHPETGLFTLQSELMVTPARGGDPRPTFSCSFSPGLPRHRALRTAPIQPRVWEPVPLEEVQLVVEPEGGAVAPPSVFLFPPKPKDTLMISRTPEVTCVVVDVSHEDPEVKFNWYVDGVEVHNAKTKPREEQYNSTYRVVSVLTVLHQDWLNGKEYKCKVSNKALPAPIEKTISKAKGQPREPQVYTLPPSRDELTKNQVSLTCLVKGFYPSDIAVEWESNGQPENNYKTTPPVLDSDGSFFLYSKLTVDKSRWQQGNVFSCSVMHEALHNHYTQKSLSLSPGK
Take B1: the TNF generated entry in the experiment on Fc receptor is listed as “less than 2 ng/well”. Besides, the “inflammatory cytokines IL-1 and TNF-α” value in experiment [1] (data not shown) is reported as “can reduce”. In addition, in experiment [1] (treated for 3 months, vs vehicle and human IgG1, FIG. 14A), the “Aβ plaques in the brain” value is on record as “fewer Aβ plaques”. Also, in experiment [1] (treated for 3 months, vs vehicle and human IgG1, FIG. 14B), the “cognitive dysfunction (Morris water maze)” value is listed as “less cognitive dysfunction”. For the same molecule, in experiment [2], the “blocking S100b induction of TNF-α compared with sRAGE” value was “at least as effective”. The “reduction of S100b induction of TNF-α” value in experiment [2] (S100b 0.1 mg/ml FAC, 24 hours) is roughly 70%. In experiment [3] (4 days after injury, dose-responsive, FIG. 13B), the “vascular smooth muscle cell proliferation (BrdU-positive nuclei)” value is reported as “significantly reduced”. Further, in experiment [3] (setting [4]), the Luminal area came to 0.16 ± 0.02 mm^2 and the Medial area was determined as 0.11 ± 0.01 mm^2. In experiment [3] (setting [5]), this molecule gave a Luminal area of 0.18 ± 0.04 mm^2 and a Medial area of 0.11 ± 0.02 mm^2.
